Data set [1] has as its target HA-tagged human eIF5A1 (wild type), in vitro translated from pHM6-HA-A1.
In data set [2] the target is HA-tagged human eIF5A1D6E, in vitro translated from pHM6-HA-A1(D6E).
The target in data set [3] is HA-tagged human eIF5A1D6E/K50R, in vitro translated from pHM6-HA-A1(D6E/K50R).

B1: recombinant caspase 3 (Calbiochem) (protein)
chain: SGISLDNSYKMDYPEMGLCIIINNKNFHKSTGMTSRSGTDVDAANLRETFRNLKYEVRNKNDLTREEIVELMRDVSKEDHSKRSSFVCVLLSHGEEGIIFGTNGPVDLKKITNFFRGDRCRSLTGKPKLFIIQACRGTELDCGIETDSGVDDDMACHKIPVEADFLYAYSTAPGYYSWRNSKDGSWFIQSLCAMLKQYADKLEFMHILTRVNRKVATEFESFSFDATFHAKKQIPCIVSMLTKELYFYH
Consider B1, for which, in data set [1], the “in vitro cleavage of the biotin-labelled translation product by recombinant caspase (SDS-PAGE, Streptavidin-HRP)” value (“in vitro cleavage” below) is “The wild-type eIF5A1 is cleaved by caspases 2, 3, 6, 7, 8, 9, and 10”.

B2: recombinant caspase 9 (Calbiochem) (protein)
chain: MDEADRRLLRRCRLRLVEELQVDQLWDALLSRELFRPHMIEDIQRAGSGSRRDQARQLIIDLETRGSQALPLFISCLEDTGQDMLASFLRTNRQAAKLSKPTLENLTPVVLRPEIRKPEVLRPETPRPVDIGSGGFGDVGALESLRGNADLAYILSMEPCGHCLIINNVNFCRESGLRTRTGSNIDCEKLRRRFSSLHFMVEVKGDLTAKKMVLALLELAQQDHGALDCCVVVILSHGCQASHLQFPGAVYGTDGCPVSVEKIVNIFNGTSCPSLGGKPKLFFIQACGGEQKDHGFEVASTSPEDESPGSNPEPDATPFQEGLRTFDQLDAISSLPTPSDIFVSYSTFPGFVSWRDPKSGSWYVETLDDIFEQWAHSEDLQSLLLRVANAVSVKGIYKQMPGCFNFLRKKLFFKTS
Regarding B2, the “in vitro cleavage” value was “The wild-type eIF5A1 is cleaved by caspases 2, 3, 6, 7, 8, 9, and 10” in data set [1]; “are not efficiently cleaved by caspases 9 and 10” in data set [2]; “are not efficiently cleaved by caspases 9 and 10” in data set [3].

B3: recombinant caspase 2 (Calbiochem) (protein)
chain: GPVCLQVKPCTPEFYQTHFQLAYRLQSRPRGLALVLSNVHFTGEKELEFRSGGDVDHSTLVTLFKLLGYDVHVLCDQTAQEMQEKLQNFAQLPAHRVTDSCIVALLSHGVEGAIYGVDGKLLQLQEVFQLFDNANCPSLQNKPKMFFIQACRGDETDRGVDQQDGKNHAGSPGCEESDAGKEKLPKMRLPTRSDMICGYACLKGTAAMRNTKRGSWYIEALAQVFSERACDMHVADMLVKVNALIKDREGYAPGTEFHRCKEMSEYCSTLCRHLYLFPGHPPT
Take B3: the “in vitro cleavage” value in data set [1] is “The wild-type eIF5A1 is cleaved by caspases 2, 3, 6, 7, 8, 9, and 10”.

B4: recombinant caspase 1 (Calbiochem) (protein)
chain: NPAMPTSSGSEGNVKLCSLEEAQRIWKQKSAEIYPIMDKSSRTRLALIICNEEFDSIPRRTGAEVDITGMTMLLQNLGYSVDVKKNLTASDMTTELEAFAHRPEHKTSDSTFLVFMSHGIREGICGKKHSEQVPDILQLNAIFNMLNTKNCPSLKDKPKVIIIQACRGDSPGVVWFKDSVGVSGNLSLPTTEEFEDDAIKKAHIEKDFIAFCSSTPDNVSWRHPTMGSVFIGRLIEHMQEYACSCDVEEIFRKVRFSFEQPDGRAQMPTTERVTLTRCFYLFPGH
Turning to B4, in data set [1], the “in vitro cleavage” value was “The wild-type eIF5A1 is cleaved by caspases 2, 3, 6, 7, 8, 9, and 10 but not by caspase 1”.

B5: recombinant caspase 7 (Calbiochem) (protein)
chain: AKPDRSSFVPSLFSKKKKNVTMRSIKTTRDRVPTYQYNMNFEKLGKCIIINNKNFDKVTGMGVRNGTDKDAEALFKCFRSLGFDVIVYNDCSCAKMQDLLKKASEEDHTNAACFACILLSHGEENVIYGKDGVTPIKDLTAHFRGDRCKTLLEKPKLFFIQACRGTELDDGIQADSGPINDTDANPRYKIPVEADFLFAYSTVPGYYSWRSPGRGSWFVQALCSILEEHGKDLEIMQILTRVNDRVARHFESQSDDPHFHEKKQIPCVVSMLTKELYFSQ
In the case of B5, the “in vitro cleavage” value in data set [1] is “The wild-type eIF5A1 is cleaved by caspases 2, 3, 6, 7, 8, 9, and 10”.

B6: recombinant caspase 6 (Calbiochem) (protein)
chain: AFYKREMFDPAEKYKMDHRRRGIALIFNHERFFWHLTLPERRGTCADRDNLTRRFSDLGFEVKCFNDLKAEELLLKIHEVSTVSHADADCFVCVFLSHGEGNHIYAYDAKIEIQTLTGLFKGDKCHSLVGKPKIFIIQACRGNQHDVPVIPLDVVDNQTEKLDTNITEVDAASVYTLPAGADFLMCYSVAEGYYSHRETVNGSWYIQDLCEMLGKYGSSLEFTELLTLVNRKVSQRRVDFCKDPSAIGKKQVPCFASMLTKKLHFFPKSN
Regarding B6, the “in vitro cleavage” value in data set [1] is “The wild-type eIF5A1 is cleaved by caspases 2, 3, 6, 7, 8, 9, and 10”.

B7: recombinant caspase 10 (Calbiochem) (protein)
chain: VKTFLEALPQESWQNKHAGSNGNRATNGAPSLVSRGMQGASANTLNSETSTKRAAVYRMNRNHRGLCVIVNNHSFTSLKDRQGTHKDAEILSHVFQWLGFTVHIHNNVTKVEMEMVLQKQKCNPAHADGDCFVFCILTHGRFGAVYSSDEALIPIREIMSHFTALQCPRLAEKPKLFFIQACQGEEIQPSVSIEADALNPEQAPTSLQDSIPAEADFLLGLATVPGYVSFRHVEEGSWYIQSLCNHLKKLVPRMLKFLEKTMEIRGRKRTVWGAKQISATSLPTAISAQTPRPPMRRWSSVS
Take B7: the “in vitro cleavage” value was “The wild-type eIF5A1 is cleaved by caspases 2, 3, 6, 7, 8, 9, and 10” in data set [1]; “are not efficiently cleaved by caspases 9 and 10” in data set [2]; “are not efficiently cleaved by caspases 9 and 10” in data set [3].

B8: recombinant caspase 8 (Calbiochem) (protein)
chain: SESQTLDKVYQMKSKPRGYCLIINNHNFAKAREKVPKLHSIRDRNGTHLDAGALTTTFEELHFEIKPHDDCTVEQIYEILKIYQLMDHSNMDCFICCILSHGDKGIIYGTDGQEAPIYELTSQFTGLKCPSLAGKPKVFFIQACQGDNYQKGIPVETDSEEQPYLEMDLSSPQTRYIPDEADFLLGMATVNNCVSYRNPAEGTWYIQSLCQSLRERCPRGDDILTILTEVNYEVSNKDDKKNMGKQMPQPTFTLRKKLVFPSD
For the protein B8, the “in vitro cleavage” value in data set [1] was “The wild-type eIF5A1 is cleaved by caspases 2, 3, 6, 7, 8, 9, and 10”; in data set [2] it was “HA-tagged eIF5A1D6E and eIF5A1D6E/K50R are effectively cleaved in vitro by caspases 3, 7 and 8”; in data set [3], “HA-tagged eIF5A1D6E and eIF5A1D6E/K50R are effectively cleaved in vitro by caspases 3, 7 and 8”.
